# Reference: IntAct's records for PubMed 19955409
# Target: rdx, Q9VFP2-2
# Sequence (Q9VFP2 456-829): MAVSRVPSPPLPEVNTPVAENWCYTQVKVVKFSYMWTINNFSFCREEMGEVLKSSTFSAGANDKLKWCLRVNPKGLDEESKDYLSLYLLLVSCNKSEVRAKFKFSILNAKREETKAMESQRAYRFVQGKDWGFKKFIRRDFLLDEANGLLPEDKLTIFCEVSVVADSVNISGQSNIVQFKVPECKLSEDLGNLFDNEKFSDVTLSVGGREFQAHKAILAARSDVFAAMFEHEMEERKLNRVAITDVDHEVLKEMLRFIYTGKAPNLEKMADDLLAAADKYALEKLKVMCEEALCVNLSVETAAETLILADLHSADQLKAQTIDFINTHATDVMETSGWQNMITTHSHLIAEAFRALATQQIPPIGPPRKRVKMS
row,Substance,effect of a mutation on the interaction
1,"Transcriptional activator cubitus interruptus (Drosophila melanogaster (Fruit fly)), P19538 E369A",disrupting interaction strength
2,"Transcriptional activator cubitus interruptus (Drosophila melanogaster (Fruit fly)), P19538 S372A",disrupting interaction strength
3,"Transcriptional activator cubitus interruptus (Drosophila melanogaster (Fruit fly)), P19538 S373A",disrupting interaction strength
4,"Transcriptional activator cubitus interruptus (Drosophila melanogaster (Fruit fly)), P19538 S373D",disrupting interaction strength
5,"Transcriptional activator cubitus interruptus (Drosophila melanogaster (Fruit fly)), P19538 S375A",disrupting interaction strength
6,"Transcriptional activator cubitus interruptus (Drosophila melanogaster (Fruit fly)), P19538 S375D",disrupting interaction strength
7,"Transcriptional activator cubitus interruptus (Drosophila melanogaster (Fruit fly)), P19538 T374A",disrupting interaction strength
8,"Transcriptional activator cubitus interruptus (Drosophila melanogaster (Fruit fly)), P19538 T374D",disrupting interaction strength
